Consider 2 molecules from paper PMC5039030, “DPP9 is a novel component of the N-end rule pathway targeting the tyrosine kinase Syk” (eLife, 2016).

Assay [1] addresses T1, recombinant DPP9-short (His-tagged DPP9 wild type) (UniProt Q86TI2 1-863).
T1 construct: DPP9, short isoform (DPP9-short); The His tag is named only for the SPR experiment; also called DPP9 wt; dipeptidylpeptidase 9
Put plainly: SPR; His-tagged DPP9 captured on a Ni2+ chelator chip (2500 to 3500 µRIU); peptide injected at 16 µM to 0.125 µM (Syk 1–31) or 32 µM to 1 µM (Syk 3–31); 20 mM Hepes, 150 mM NaCl, 0.005% Tween 20, 50 µM EDTA, pH 7.4; 40 µl/min; equilibrium binding analysis. As to conditions: both partners purified. For orientation: SPR reads the build-up and loss of mass on a sensor chip optically.

Assay [2] deals with T2, DPP9 S730G (inactive DPP9 variant) (UniProt Q86TI2 1-863, S730G).
T2 construct: DPP9 with the active-site serine mutated to glycine; Parent construct is surmised to be DPP9-short as in m1; source: recombinant
The assay is described as above. The note with it: both partners purified.

T1 sequence (Q86TI2 whole entry, canonical isoform): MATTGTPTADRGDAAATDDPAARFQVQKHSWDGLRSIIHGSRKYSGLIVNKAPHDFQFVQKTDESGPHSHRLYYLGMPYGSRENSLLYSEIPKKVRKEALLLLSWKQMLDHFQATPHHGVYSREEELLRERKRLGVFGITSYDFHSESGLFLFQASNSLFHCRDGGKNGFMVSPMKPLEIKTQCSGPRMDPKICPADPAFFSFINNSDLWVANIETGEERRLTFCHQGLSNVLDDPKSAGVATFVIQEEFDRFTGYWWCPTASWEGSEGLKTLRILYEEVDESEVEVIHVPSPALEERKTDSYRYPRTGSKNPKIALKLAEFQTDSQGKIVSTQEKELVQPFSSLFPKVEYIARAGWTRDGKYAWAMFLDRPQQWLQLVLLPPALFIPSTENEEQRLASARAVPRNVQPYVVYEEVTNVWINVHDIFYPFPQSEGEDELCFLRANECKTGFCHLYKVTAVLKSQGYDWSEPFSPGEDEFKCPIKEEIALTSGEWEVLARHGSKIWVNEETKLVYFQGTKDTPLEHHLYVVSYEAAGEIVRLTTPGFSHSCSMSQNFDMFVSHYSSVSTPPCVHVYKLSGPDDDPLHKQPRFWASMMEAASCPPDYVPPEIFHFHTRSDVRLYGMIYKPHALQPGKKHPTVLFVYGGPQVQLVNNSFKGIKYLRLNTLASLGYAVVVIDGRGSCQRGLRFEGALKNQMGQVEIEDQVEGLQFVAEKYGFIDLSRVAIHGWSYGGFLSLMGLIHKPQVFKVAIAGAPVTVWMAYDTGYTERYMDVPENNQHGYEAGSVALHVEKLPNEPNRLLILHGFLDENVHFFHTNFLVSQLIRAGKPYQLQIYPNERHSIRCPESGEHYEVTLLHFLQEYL
T2 sequence (Q86TI2 whole entry S730G): as the sequence (Q86TI2 whole entry, canonical isoform) above, with S730G counted along it

B1: synthetic Syk (1–31) peptide covering the first 31 amino acids of full-length Syk (peptide)
peptide: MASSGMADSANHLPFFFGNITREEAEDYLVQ
notes: tyrosine kinase Syk, residues 1–31; also called Syk N-terminus peptide (1–31); Syk amino terminus peptide 1–31; source: synthetic peptide (custom-made by GenScript, >80% purity)
Take B1: the figures for the Kd in assay [1] and in assay [2] were 52 µM and 284 µM, respectively.

B2: Syk△MA (3–31) peptide (peptide)
peptide: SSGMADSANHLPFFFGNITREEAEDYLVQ
notes: tyrosine kinase Syk, residues 3–31; also called Syk (3–31); source: synthetic peptide (custom-made by GenScript, >80% purity)
B2: the Kd in assay [1] was determined as 156 µM.

The term Kd denotes the concentration at which binding is half-saturated.
